Patent publication US20250333518A1 (ROCK BIOMEDICAL, published 2025)
Blank lines part the entries; values can stand above or below the binder they belong to.

Target: T1, CD20 (UniProt P11836 1-297, limits assumed)
T1 construct: also called the antigen (of Rituximab and Obinutuzumab)
T1 sequence (looked up): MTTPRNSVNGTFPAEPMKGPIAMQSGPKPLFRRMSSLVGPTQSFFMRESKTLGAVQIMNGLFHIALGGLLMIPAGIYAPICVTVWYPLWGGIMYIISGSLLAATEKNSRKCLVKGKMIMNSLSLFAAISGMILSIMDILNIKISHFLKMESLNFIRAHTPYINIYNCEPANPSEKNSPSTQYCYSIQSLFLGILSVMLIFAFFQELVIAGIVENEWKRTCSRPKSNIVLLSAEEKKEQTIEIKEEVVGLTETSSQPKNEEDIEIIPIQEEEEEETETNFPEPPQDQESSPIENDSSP
Assay: ELISA, target binding

EC50: 0.77 nM
B1: Rituximab (MabThera® or Rituxan®) population produced by the SAII A3 Fut8 KO cells according to the present disclosure (antibody, human IgG1, kappa, V domains shown)
VH: QVQLQQPGAELVKPGASVKMSCKASGYTFTSYNMHWVKQTPGRGLEWIGAIYPGNGDTSYNQKFKGKATLTADKSSSTAYMQLSSLTSEDSAVYYCARSTYYGGDWYFNVWGAGTTVTVSA
VL: QIVLSQSPAILSASPGEKVTMTCRASSSVSYIHWFQQKPGSSPKPWIYATSNLASGVPVRFSGSGSGTSYSLTISRVEAEDAATYYCQQWTSNPPTFGGGTKLEIKR
modifications: N-glycan: sialylated complex type glycans around 83.4% of the glycans, no core fucose
notes: Differs from the commercial product in the glycan profile only; also called Biobetter Rituximab; glycoengineered MabThera®

EC50: 0.544 nM
B2: Rituximab, commercially available product (MabThera®) (antibody, human IgG1, kappa, V domains shown)
VH: B1 VH
VL: B1 VL
notes: Bought product; also called Rituxan
